In article PMC6688830, “A Ubiquitin-Binding Domain that Binds a Structural Fold Distinct from that of Ubiquitin” (Structure(London, England:1993), 2019):

What was measured:
Settings in all cases: both partners purified
[1] = target: T1, KAP1 S33-K434 (human, UniProt Q13263 33-434); experiment: ITC; MicroCal ITC200, 20°C; KAP1 RBCC (9-18 μM) in the cell, SMARCAD1 CUE1 or CUE1,2 (90-300 μM) in the syringe; 10 mM Tris-HCl pH 7.9, 100 mM NaCl, 5 mM β-ME; One set of sites model
T1 construct: KAP1 (TRIM28), human, UniProt Q13263, residues S33-K434 (RBCC domain); The crystal structures of shorter RBCC constructs show an antiparallel homodimer; also called KAP1 RBCC (S33-K434); KAP1 RBCC; source: E. coli BL-21 CodonPlus (DE3)-RP, purified (Ni-NTA, Ulp1, Mono Q)

[2] = target: T2, Ubiquitin (UniProt P0CG48 1-76); experiment: ITC; MicroCal ITC200, 10°C; 120 μM SMARCAD1 CUE1 or CUE1,2 in the cell, 9.8 mM mono-Ub in the syringe; 10 mM Tris-HCl pH 7.9, 100 mM NaCl, 5 mM β-ME; One set of sites model
T2 construct: ubiquitin, monomeric, the cut product of a ubiquitin precursor; also called mono-Ub; monomeric ubiquitin; source: bought: Boston Biochem (purified recombinant)

[3] = target: T3, KAP1 S33-K434 I379A (human, UniProt Q13263 33-434, I379A); experiment: co-IP; purified SMARCAD1 fragments (FLAG-CUE1,2, FLAG-CUE1) and KAP1 RBCC, 9.6μg each in 240μL, 4°C 1 hour; anti-FLAG M2 affinity gel 3 hours
T3 construct: KAP1 (TRIM28), human, UniProt Q13263, residues S33-K434 (RBCC domain); source: E. coli BL-21 CodonPlus (DE3)-RP, purified (Ni-NTA, Ulp1, Mono Q)

[4] = target: T4, KAP1 S33-K434 L376A (human, UniProt Q13263 33-434, L376A); experiment: as above
T4 construct: KAP1 (TRIM28), human, UniProt Q13263, residues S33-K434 (RBCC domain); source: E. coli BL-21 CodonPlus (DE3)-RP, purified (Ni-NTA, Ulp1, Mono Q)

[5] = target: T5, KAP1 S33-K434 V380A (human, UniProt Q13263 33-434, V380A); experiment: as above
T5 construct: KAP1 (TRIM28), human, UniProt Q13263, residues S33-K434 (RBCC domain); source: E. coli BL-21 CodonPlus (DE3)-RP, purified (Ni-NTA, Ulp1, Mono Q)
T5 sequence (Q13263 33-434 V380A): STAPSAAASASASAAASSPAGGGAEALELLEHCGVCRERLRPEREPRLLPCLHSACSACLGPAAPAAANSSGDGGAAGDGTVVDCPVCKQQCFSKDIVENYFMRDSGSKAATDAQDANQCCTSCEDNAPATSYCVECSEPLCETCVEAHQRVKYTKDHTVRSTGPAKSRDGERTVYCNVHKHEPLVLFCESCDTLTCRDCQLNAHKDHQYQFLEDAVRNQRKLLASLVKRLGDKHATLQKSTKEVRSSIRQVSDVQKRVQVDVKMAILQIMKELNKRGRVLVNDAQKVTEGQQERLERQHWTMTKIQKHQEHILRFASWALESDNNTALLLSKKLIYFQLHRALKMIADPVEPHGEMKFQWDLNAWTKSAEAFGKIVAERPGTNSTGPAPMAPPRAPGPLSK

T3 sequence (Q13263 33-434 I379A): as the sequence (Q13263 33-434 V380A) above, with I347A, A348V counted along it
T4 sequence (Q13263 33-434 L376A): as the sequence (Q13263 33-434 V380A) above, with L344A, A348V counted along it
T1 sequence (Q13263 33-434): as the sequence (Q13263 33-434 V380A) above, with A348V counted along it

B1: FLAG-CUE1,2 (WT) (domain or fragment, human, UniProt Q9H4L7 95-347, looked up)
chain: SSDSEDVVSPNCSNTVQEKTFNKDTVIIVSEPSEDEESQGLPTMARRNDDISELEDLSELEDLKDAKLQTLKELFPQRSDNDLLKLIESTSTMDGAIAAALLMFGDAGGGPRKRKLSSSSEPYEEDEFNDDQSIKKTRLDHGEESNESAESSSNWEKQESIVLKLQKEFPNFDKQELREVLKEHEWMYTEALESLKVFAEDQDMQYVSQSEVPNGKEVSSRSQNYPKNATKTKLKQKFSMKAQNGFNKKRKKN
notes: SMARCAD1, human, UniProt Q9H4L7, residues S95-N347 (both CUE domains); also called SMARCAD1 CUE1,2 (S95-N347); wild-type CUE1,2; source: E. coli BL-21 CodonPlus (DE3)-RIL, purified (Ni-NTA, Ulp1, Mono Q if required)
Kd [1]: ~0.21 µM
Kd [2]: ~389 µM
binding result [3]: binds
binding result [4]: binds
binding result [5]: binds
